# Results reported in patent US20240285753A1 (DUKE UNIVERSITY, published 2024).
# B1: DH1509 (antibody, V domains shown)
# VH: QVQLVESGGGVVQPGRSLRLSCAASGFTLSSHGIHWVRQAPGKGLEWVAVTSFDGRNKKFGDSVKGRFTISRDNSKNTVYLQMNSLRTEDTAVYYCAKDWGDDYSRWYFDLWGRGTLVTVSS
# VL: DIQMTQSPSSLSASVGDRVTITCQASHDITKYLNWYQQKPGRAPKLLIYDASNLKTGVPSRFSGSGSGTDFTFTITSLQPEDLATYYCQQSDVLPITFGQGTRLEIK
# Target: MERS spike (2P) (MERS-CoV, UniProt K9N5Q8 18-1291)
# Experiment: ELISA, coated spike, mAb titrated
binder,measurement,value
B1,EC50 (read off the curve),~0.2 µg/mL
